From publication PMC4358659, “The functional interactome of PYHIN immune regulators reveals IFIX is a sensor of viral DNA”

T1: GST-IFIX-HIN200 (human, UniProt Q6K0P9 200-492)
T1 sequence: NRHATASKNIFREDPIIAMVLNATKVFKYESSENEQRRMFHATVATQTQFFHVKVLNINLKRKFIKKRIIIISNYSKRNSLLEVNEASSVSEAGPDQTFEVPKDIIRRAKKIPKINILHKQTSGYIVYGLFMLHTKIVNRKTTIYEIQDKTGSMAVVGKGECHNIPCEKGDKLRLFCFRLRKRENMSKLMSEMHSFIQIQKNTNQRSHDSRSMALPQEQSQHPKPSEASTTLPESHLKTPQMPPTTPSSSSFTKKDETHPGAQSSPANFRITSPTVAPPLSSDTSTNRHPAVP

B1: ISD (biotinylated) (dsDNA)
DNA 1: TACAGATCTACTAGTGATCTATGACTGATCTGTACATGATCTACA
DNA 2: TGTAGATCATGTACAGATCAGTCATAGATCACTAGTAGATCTGTA
B2: ISD (unlabeled competitor) (dsDNA)
DNA 1: TACAGATCTACTAGTGATCTATGACTGATCTGTACATGATCTACA
DNA 2: TGTAGATCATGTACAGATCAGTCATAGATCACTAGTAGATCTGTA

How the values were obtained:
GST-IFIX-HIN200 [1] = target: T1, GST-IFIX-HIN200; assay: EMSA; 2 pmol protein, 20 fmol DNA; EMSA: 10 mM Tris pH 7.5, 50 mM KCl, 1 mM DTT, 50 μg/ml BSA, ambient temperature, 30 min; conditions: protein: recombinant; tags: N-terminal GST (pGEX-4T1); label: 5'-biotin on sense strand; blunt
GST-IFIX-HIN200 [2] = target: T1, GST-IFIX-HIN200; assay: competition; unlabeled ISD competes with biotinylated ISD (EMSA); EMSA: 10 mM Tris pH 7.5, 50 mM KCl, 1 mM DTT, 50 μg/ml BSA, ambient temperature, 30 min; conditions: protein: recombinant; tags: N-terminal GST (pGEX-4T1); blunt

Row | Binder | binding result (GST-IFIX-HIN200 [1]) | binding result (GST-IFIX-HIN200 [2])
1 | B1 | binds | –
2 | B2 | – | binds
